Reference: PMC11467436, “Novel mechanisms of MITF regulation identified in a mouse suppressor screen”

Legend:
Details in all cases: protein: recombinant; tags: none (His6-SUMO removed by ULP-1); unlabeled; chain copies: 2; label: Cy3B (5' positive strand); CF660R (5' negative strand); blunt
hMITF-sl [1] = target: T1, hMITF-sl (Homo sapiens, UniProt O75030-10 1-309); test: FCS; 300 mM KCl; Single-molecule: 0.5 nM DNA, 10 mM Tris pH 7.4, 0.1 mM EDTA, 165 or 300 mM KCl, 1 mM MgCl2, 143 mM 2-ME, 0.01% Tween-20, 0.1 mg/mL BSA. EMSA: 10 mM Hepes pH 7.9, 50 mM NaCl, 5 mM MgCl2, 0.1 mM EDTA, 2 mM DTT, 5% ethylene glycol, 5% glycerol, BSA, 30 min on ice
T1 sequence (O75030 other isoform, or with tags, fused parts or gaps): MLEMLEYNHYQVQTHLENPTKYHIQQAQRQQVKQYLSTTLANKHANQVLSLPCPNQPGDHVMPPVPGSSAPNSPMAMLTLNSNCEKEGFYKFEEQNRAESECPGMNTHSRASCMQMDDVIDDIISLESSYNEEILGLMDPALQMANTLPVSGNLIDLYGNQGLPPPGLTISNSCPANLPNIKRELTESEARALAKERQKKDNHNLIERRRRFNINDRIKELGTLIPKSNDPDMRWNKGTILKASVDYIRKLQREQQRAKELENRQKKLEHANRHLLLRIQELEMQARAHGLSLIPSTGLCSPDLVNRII

hMITF-sp [2] = target: T2, hMITF-sp (Homo sapiens, UniProt O75030-10 1-413); test: as above
T2 sequence (O75030 other isoform, or with tags, fused parts or gaps): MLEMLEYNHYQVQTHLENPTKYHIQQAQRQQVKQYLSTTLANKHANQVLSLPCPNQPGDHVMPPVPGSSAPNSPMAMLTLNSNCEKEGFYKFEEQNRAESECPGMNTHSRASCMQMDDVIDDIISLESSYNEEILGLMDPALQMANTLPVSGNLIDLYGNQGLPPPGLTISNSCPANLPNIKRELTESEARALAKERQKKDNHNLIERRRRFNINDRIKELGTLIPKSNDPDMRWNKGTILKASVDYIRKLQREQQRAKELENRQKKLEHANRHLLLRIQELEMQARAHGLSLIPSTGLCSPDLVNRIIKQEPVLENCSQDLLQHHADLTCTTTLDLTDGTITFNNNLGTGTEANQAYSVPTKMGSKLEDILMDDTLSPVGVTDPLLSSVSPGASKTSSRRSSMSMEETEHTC

hMITF-WT [3] = target: T3, hMITF-WT (Homo sapiens, UniProt O75030-9 1-419); test: as above
T3 sequence (O75030 other isoform, or with tags, fused parts or gaps): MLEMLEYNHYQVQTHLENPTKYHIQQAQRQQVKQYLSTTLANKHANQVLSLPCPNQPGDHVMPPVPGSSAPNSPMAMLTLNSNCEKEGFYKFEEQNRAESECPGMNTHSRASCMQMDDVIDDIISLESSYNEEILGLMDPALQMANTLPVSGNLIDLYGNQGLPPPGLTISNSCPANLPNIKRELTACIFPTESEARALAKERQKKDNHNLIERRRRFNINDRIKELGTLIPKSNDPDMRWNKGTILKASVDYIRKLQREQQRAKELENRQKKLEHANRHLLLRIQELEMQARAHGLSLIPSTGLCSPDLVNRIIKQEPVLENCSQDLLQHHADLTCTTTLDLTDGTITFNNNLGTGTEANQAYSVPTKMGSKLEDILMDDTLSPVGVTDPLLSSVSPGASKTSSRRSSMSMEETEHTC

hMITF-sl [4] = target: T1, hMITF-sl; test: single-molecule fluorescence anisotropy; 300 mM KCl; Single-molecule: 0.5 nM DNA, 10 mM Tris pH 7.4, 0.1 mM EDTA, 165 or 300 mM KCl, 1 mM MgCl2, 143 mM 2-ME, 0.01% Tween-20, 0.1 mg/mL BSA. EMSA: 10 mM Hepes pH 7.9, 50 mM NaCl, 5 mM MgCl2, 0.1 mM EDTA, 2 mM DTT, 5% ethylene glycol, 5% glycerol, BSA, 30 min on ice
hMITF-sp [5] = target: T2, hMITF-sp; test: as above
hMITF-WT [6] = target: T3, hMITF-WT; test: as above
hMITF-sl [7] = target: T1, hMITF-sl; test: smFRET; 300 mM KCl; Single-molecule: 0.5 nM DNA, 10 mM Tris pH 7.4, 0.1 mM EDTA, 165 or 300 mM KCl, 1 mM MgCl2, 143 mM 2-ME, 0.01% Tween-20, 0.1 mg/mL BSA. EMSA: 10 mM Hepes pH 7.9, 50 mM NaCl, 5 mM MgCl2, 0.1 mM EDTA, 2 mM DTT, 5% ethylene glycol, 5% glycerol, BSA, 30 min on ice
hMITF-sp [8] = target: T2, hMITF-sp; test: as above
hMITF-WT [9] = target: T3, hMITF-WT; test: as above

B1: M-box smFRET probe (dsDNA)
DNA 1: GAGATCATGTGTTGA
DNA 2: TCAACACATGATCTC
modifications: 5' C6-amino linker on both strands
B1 showed a Kd (hMITF-sl [1]) of 3.1 ± 1.6 nM, a Kd (hMITF-sp [2]) of 5.8 ± 3.5 nM and a Kd (hMITF-WT [3]) of 4.5 ± 1.4 nM. The Kd (hMITF-sl [4]) was 0.9 ± 0.4 nM, the Kd (hMITF-sp [5]) was 1 ± 0.4 nM and the Kd (hMITF-WT [6]) was 1.9 ± 0.6 nM. The Kd (hMITF-sl [7]) was 1.6 ± 0.5 nM, the Kd (hMITF-sp [8]) was 1.7 ± 0.9 nM and the Kd (hMITF-WT [9]) was 1.6 ± 1.4 nM.
